# Reference: paper PMC3924328, “Structure of the S100A4/myosin-IIA complex” (BMC Structural Biology, 2013)
# The star is where a group is joined. FITC = O=C1OC2(c3ccc(O)cc3Oc3cc(O)ccc32)c2ccc(NC(=S)*)cc21; Ahx = NCCCCCC(=O)O
# B1: FITC-MIIA^1904-1927 peptide (peptide)
# peptide: {FITC-Ahx}-TETADAMNREVSSLKNKLRRGDLP-NH2
# SMILES: CSCC[C@H](NC(=O)[C@H](C)NC(=O)[C@H](CC(=O)O)NC(=O)[C@H](C)NC(=O)[C@@H](NC(=O)[C@H](CCC(=O)O)NC(=O)[C@@H](NC(=O)CCCCCNC(=S)Nc1ccc2c(c1)C(=O)OC21c2ccc(O)cc2Oc2cc(O)ccc21)[C@@H](C)O)[C@@H](C)O)C(=O)N[C@@H](CC(N)=O)C(=O)N[C@@H](CCCNC(=N)N)C(=O)N[C@@H](CCC(=O)O)C(=O)N[C@H](C(=O)N[C@@H](CO)C(=O)N[C@@H](CO)C(=O)N[C@@H](CC(C)C)C(=O)N[C@@H](CCCCN)C(=O)N[C@@H](CC(N)=O)C(=O)N[C@@H](CCCCN)C(=O)N[C@@H](CC(C)C)C(=O)N[C@@H](CCCNC(=N)N)C(=O)N[C@@H](CCCNC(=N)N)C(=O)NCC(=O)N[C@@H](CC(=O)O)C(=O)N[C@@H](CC(C)C)C(=O)N1CCC[C@H]1C(N)=O)C(C)C
# notes: source: synthetic peptide (Bio-Synthesis Inc.)
# B2: MIIA^1851-1960 (C-terminal fragment of the human myosin-IIA heavy chain) (domain or fragment, UniProt P35579 1851-1960, looked up)
# chain: VDDERRNAEQYKDQADKASTRLKQLKRQLEEAEEEAQRANASRRKLQRELEDATETADAMNREVSSLKNKLRRGDLPFVVPRRMARKGAGDGSDEEVDGKADGAEAKPAE
# notes: about 75 residues of the coiled-coil and the entire C-terminal tailpiece; A dimer when alone (sedimentation equilibrium); Printed monomer mass 12,397.5 Da; source: E. coli BL21(DE3)*, purified (High Q Sepharose, hydroxyapatite, Sephacryl S200)
# B3: S100A4 (wild-type, full-length, human) (natural protein)
# chain: not shown
# notes: Dimer; also called wild-type S100A4; Ca^2+-S100A4; source: E. coli BL21(DE3)*, purified (ammonium sulfate, Phenyl-Sepharose, Q XL anion exchange); 15N-labelled from M9 medium for NMR
# How the values were obtained:
# [1] = biological target: T1, S100A4Δ8C (S100A4 with the C-terminal eight amino acids deleted) (human, UniProt P26447 1-93); assay: fluorescence polarisation; direct anisotropy titration; 50 nM FITC-MIIA^1904-1927, 0-30 μM S100A4Δ8C dimer; 22°C; 20 mM Tris pH 7.5, 150 mM KCl, 1 mM DTT, 0.5 mM CaCl2, 0.5 mg/ml BSA; single site saturation fit; settings: both partners purified
# T1 construct: S100A4, human, codon-optimized, untagged, in pET11b; deletion of the C-terminal eight amino acids (residues 94-101 absent); Dimer; also called Ca^2+-S100A4Δ8C; apo-S100A4Δ8C; source: E. coli BL21(DE3)*, purified (ammonium sulfate, Phenyl-Sepharose, Q XL anion exchange; Superdex 75 for crystallization)
# [2] = biological target: B3; assay: AUC; sedimentation velocity, 22°C, 53,000 rpm; 20 mM Tris pH 7.5, 150 mM KCl, 0.5 mM CaCl2, 1 mM TCEP; each protein alone and MIIA^1851-1960 dimer:S100A4 dimer at 0.5:1, 1:1, 1.5:1; settings: both partners purified
# [3] = biological target: B3; assay: fluorescence polarisation; competition anisotropy; 50 nM FITC-MIIA^1904-1927, 0.3 μM S100A4 dimer, 0-10 μM MIIA^1851-1960 dimer; 22°C; 20 mM Tris pH 7.5, 150 mM KCl, 1 mM DTT, 0.5 mM CaCl2, 0.5 mg/ml BSA; settings: both partners purified
# [4] = biological target: B3; assay: AUC; sedimentation equilibrium, 22°C, interference optics; 20 mM Tris pH 7.5, 150 mM KCl, 0.5 mM CaCl2, 1 mM TCEP; MIIA^1851-1960 alone and mixed with S100A4 at 0.5:1 and 1:1 (dimer:dimer); 12,000, 20,000 and 28,000 rpm; settings: both partners purified
# [5] = biological target: the molecule itself; assay: as above
# T1 sequence (P26447 1-93, stated change not applied): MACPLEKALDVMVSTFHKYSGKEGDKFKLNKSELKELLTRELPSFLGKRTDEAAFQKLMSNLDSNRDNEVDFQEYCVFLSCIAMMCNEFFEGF
binder,measurement,setting,value
B1,Kd,[1],510 ± 50 nM
B2,stoichiometry N,[2],1 MIIA^1851-1960 polypeptide per S100A4 dimer
same,IC50,[3],21.2 nM
same,stoichiometry N,[4],1 MIIA^1851-1960 polypeptide chain per S100A4 dimer
same,stoichiometry N,[5],2
B3,binding result,[5],binds
